Data on 44 variants can be found in the supplement of paper PMC12783771.

B1: library; a variant is named by its letters at X, in order (parent)
chain: MNIQIGELAKRTACPVVTIRFYEQEGLLPPPGRSRGNFRLYGEEHVERLQFIRHCRSLDMPLSDVRTLLSYRKRPDQDCGEVXMLLDEHIRQVESRIGALLELKHHLVELREACSGARPAQSCGILQXLSXCVCXTRGTTAHXSD

The variants in data set [1] derive from B1. The experiment in a line: sfGFP reporter fluorescence (15 h) (µM FITC); higher = higher leak. The note with it: library round: Round 2; ligand: none. The method, then: (§1)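 Cell-free biosensing: 1 µL Echo-assembled CFE reactions with linear PbrR variant templates (5 nM) and pPbrR-sfGFP reporter, with 1 µM Pb, 30 µM Zn or no ligand; endpoint sfGFP fluorescence after 15 h at 30 °C calibrated as µM FITC. Round 2 ML-predicted PbrR mutants; up to 3 biological replicates.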

In data set [2] the parent is B1. The experiment in a line: sfGFP reporter fluorescence (15 h) (µM FITC); higher = stronger transcriptional activation. The settings on record: library round: Round 2. The method, then: as §1

± gives the standard deviation of the averaged measurements.

As for NGCAY, the figures for the sfGFP reporter fluorescence in data set [1], in data set [2] (ligand: 1 µM Pb) and in data set [2] (ligand: 30 µM Zn) were 0.0505 ± 0.0017, 0.0635 ± 0.0058 and 0.277 ± 0.0034, respectively.
Taken in the same sequence, the figures for TGDDP R96A E109A were 0.0459 ± 0.0014, 0.0588 ± 0.00089 and 0.144 ± 0.02.
For the variant NEDAT, the sfGFP reporter fluorescence in data set [1] came out at 0.0492 ± 0.001; in data set [2] (ligand: 1 µM Pb), 0.0597 ± 0.0011; in data set [2] (ligand: 30 µM Zn), 0.594 ± 0.053.
With TGDDW L126I, the sfGFP reporter fluorescence came out at 0.0487 ± 0.0018 in data set [1], 0.04581 ± 0.00039 in data set [2] (ligand: 1 µM Pb) and 0.0773 ± 0.00089 in data set [2] (ligand: 30 µM Zn).
Taken in the same sequence, the figures for MGSDA were 0.0442 ± 0.0017, 0.0841 ± 0.0012 and 0.0513 ± 0.00078.
For NGDDP D64K K104V R111A, the sfGFP reporter fluorescence in data set [1] was determined as 0.0829 ± 0.0096; in data set [2] (ligand: 1 µM Pb) it was 0.354 ± 0.017; in data set [2] (ligand: 30 µM Zn) it was 2.2 ± 0.44.
For NGADP M60L D64K, the sfGFP reporter fluorescence in data set [1] came out at 1.59 ± 0.28; in data set [2] (ligand: 1 µM Pb) it was 2.6 ± 0.28; in data set [2] (ligand: 30 µM Zn), 3.98 ± 0.16.
NICDP M60L D64K: the sfGFP reporter fluorescence turned out to be 2.32 ± 0.17 in data set [1], 3.17 ± 0.17 in data set [2] (ligand: 1 µM Pb) and 3.67 ± 0.38 in data set [2] (ligand: 30 µM Zn).
As to NGDAP M60L D64K, the sfGFP reporter fluorescence in data set [1] came to 1.45 ± 1.3; in data set [2] (ligand: 1 µM Pb), 1.27 ± 0.82; in data set [2] (ligand: 30 µM Zn), 3.35 ± 0.63.
Consider TGDDP I97A K104G, for which the sfGFP reporter fluorescence was 0.0644 ± 0.0063 in data set [1], 0.155 ± 0.025 in data set [2] (ligand: 1 µM Pb) and 0.412 ± 0.04 in data set [2] (ligand: 30 µM Zn).
For NGDDP P61N D64K K104M L107C, the sfGFP reporter fluorescence in data set [1] stood at 0.791 ± 0.061; in data set [2] (ligand: 1 µM Pb), 1.74 ± 0.2; in data set [2] (ligand: 30 µM Zn) it was 2.52 ± 0.35.
Taken in the same sequence, the figures for TGDDT R111V were 0.048 ± 0.00067, 0.0656 ± 0.0064 and 0.282 ± 0.033.
On to TGDDT R111I, for which the values for the sfGFP reporter fluorescence in data set [1], in data set [2] (ligand: 1 µM Pb) and in data set [2] (ligand: 30 µM Zn) were 0.0459 ± 0.00085, 0.0556 ± 0.0012 and 0.201 ± 0.0085, respectively.
As for NGHAY, the results for the sfGFP reporter fluorescence in data set [1], in data set [2] (ligand: 1 µM Pb) and in data set [2] (ligand: 30 µM Zn) were 0.0533 ± 0.003, 0.0816 ± 0.0062 and 0.791 ± 0.037, respectively.
As for TGSAP V108L, the sfGFP reporter fluorescence in data set [1] worked out at 0.0457 ± 0.0012; in data set [2] (ligand: 1 µM Pb) it was 0.102 ± 0.0018; in data set [2] (ligand: 30 µM Zn), 0.475 ± 0.012.
Regarding NIDSP M60L, the sfGFP reporter fluorescence in data set [1] came to 0.251 ± 0.048; in data set [2] (ligand: 1 µM Pb), 0.739 ± 0.14; in data set [2] (ligand: 30 µM Zn) it was 2.25 ± 0.49.
As for TGAPW, the sfGFP reporter fluorescence in data set [1] is 0.0521 ± 0.00089; in data set [2] (ligand: 1 µM Pb), 0.146 ± 0.014; in data set [2] (ligand: 30 µM Zn) it was 0.264 ± 0.014.
Taken in the same sequence, the figures for TGDDP K104R E112F were 0.0494 ± 0.00089, 0.0553 ± 0.0034 and 0.111 ± 0.0062.
For the variant NGDDP P61E L62I D64K, the figures for the sfGFP reporter fluorescence in data set [1], in data set [2] (ligand: 1 µM Pb) and in data set [2] (ligand: 30 µM Zn) were 0.125 ± 0.015, 0.249 ± 0.094 and 1.34 ± 0.17, respectively.
As to NGADL L129V, the values for the sfGFP reporter fluorescence in data set [1], in data set [2] (ligand: 1 µM Pb) and in data set [2] (ligand: 30 µM Zn) were 0.0491 ± 0.0012, 0.0459 ± 0.00051 and 0.0502 ± 0.0022, respectively.
TGSDP V108L: the sfGFP reporter fluorescence in data set [1] was found to be 0.0452 ± 0.0017; in data set [2] (ligand: 1 µM Pb), 0.0823 ± 0.0056; in data set [2] (ligand: 30 µM Zn) it was 0.229 ± 0.022.
For the variant TGNRA, the results for the sfGFP reporter fluorescence in data set [1], in data set [2] (ligand: 1 µM Pb) and in data set [2] (ligand: 30 µM Zn) were 0.0608 ± 0.0044, 0.107 ± 0.018 and 0.663 ± 0.059, respectively.
Taken in the same sequence, the figures for NGDDM I90L I125L were 0.0615 ± 0.0043, 0.0526 ± 0.0027 and 0.0576 ± 0.0035.
Taken in the same sequence, the figures for TGDRP L107C were 0.176 ± 0.016, 1.17 ± 0.063 and 2.94 ± 0.2.
For the variant NGDAP S130A T136A, the sfGFP reporter fluorescence in data set [1] is 0.0512 ± 0.001; in data set [2] (ligand: 1 µM Pb), 0.0834 ± 0.0067; in data set [2] (ligand: 30 µM Zn), 1.11 ± 0.13.
Taken in the same sequence, the figures for NSEPP were 0.0629 ± 0.0028, 0.145 ± 0.014 and 1.79 ± 0.34.
Regarding NIDDP K104T L107E, the sfGFP reporter fluorescence worked out at 0.047 ± 0.0022 in data set [1], 0.0442 ± 0.00085 in data set [2] (ligand: 1 µM Pb) and 0.0493 ± 0.0021 in data set [2] (ligand: 30 µM Zn).
TGDAL V108L: the sfGFP reporter fluorescence in data set [1] was 0.0451 ± 0.0016; in data set [2] (ligand: 1 µM Pb) it was 0.073 ± 0.0021; in data set [2] (ligand: 30 µM Zn), 0.281 ± 0.0062.
As for NGADY L107C, the sfGFP reporter fluorescence is 1.36 ± 0.23 in data set [1], 2.4 ± 0.18 in data set [2] (ligand: 1 µM Pb) and 3.25 ± 0.18 in data set [2] (ligand: 30 µM Zn).
On to NGADP V133P C134V, for which the sfGFP reporter fluorescence in data set [1] is 0.0817 ± 0.0086; in data set [2] (ligand: 1 µM Pb) it was 0.0967 ± 0.019; in data set [2] (ligand: 30 µM Zn), 2.1 ± 0.36.
Take NGCAP S130A: the sfGFP reporter fluorescence in data set [1] was found to be 0.0466 ± 0.011; in data set [2] (ligand: 1 µM Pb), 0.0819 ± 0.0045; in data set [2] (ligand: 30 µM Zn) it was 0.429 ± 0.066.
On to TGDDA E25V, for which the sfGFP reporter fluorescence was 0.0619 ± 0.0073 in data set [1], 0.072 ± 0.0079 in data set [2] (ligand: 1 µM Pb) and 0.252 ± 0.031 in data set [2] (ligand: 30 µM Zn).
Taken in the same sequence, the figures for NMDDP K104V L107S were 0.0726 ± 0.0093, 0.159 ± 0.014 and 1.27 ± 0.068.
Taken in the same sequence, the figures for TGDDY I125L were 0.0486 ± 0.0014, 0.0429 ± 0.0049 and 0.0494 ± 0.0015.
Take NGADP M60L P61N D64K: the sfGFP reporter fluorescence in data set [1] was 0.804 ± 0.17; in data set [2] (ligand: 1 µM Pb), 1.38 ± 0.2; in data set [2] (ligand: 30 µM Zn) it was 2.82 ± 0.43.
With NIEDP L107C, the sfGFP reporter fluorescence worked out at 1.74 ± 0.23 in data set [1], 2.69 ± 0.47 in data set [2] (ligand: 1 µM Pb) and 3.33 ± 0.68 in data set [2] (ligand: 30 µM Zn).
In the case of NGDAL L110I, the sfGFP reporter fluorescence in data set [1] stood at 0.0605 ± 0.0082; in data set [2] (ligand: 1 µM Pb), 0.0575 ± 0.0038; in data set [2] (ligand: 30 µM Zn), 0.953 ± 0.064.
On to NMDDP M60L D64T L107C, for which the sfGFP reporter fluorescence in data set [1] is 3.16 ± 0.21; in data set [2] (ligand: 1 µM Pb), 2.93 ± 0.29; in data set [2] (ligand: 30 µM Zn), 4.14 ± 0.31.
As for NGDAR E112I, the sfGFP reporter fluorescence in data set [1] is 0.0495 ± 0.0017; in data set [2] (ligand: 1 µM Pb) it was 0.054 ± 0.002; in data set [2] (ligand: 30 µM Zn), 0.35 ± 0.016.
Consider NMDAP L101V K104V, for which the sfGFP reporter fluorescence in data set [1] is 0.176 ± 0.024; in data set [2] (ligand: 1 µM Pb), 0.55 ± 0.022; in data set [2] (ligand: 30 µM Zn), 2.78 ± 0.34.
For TGAAP, the sfGFP reporter fluorescence in data set [1] came out at 0.0444 ± 0.0012; in data set [2] (ligand: 1 µM Pb) it was 0.0747 ± 0.0046; in data set [2] (ligand: 30 µM Zn), 0.359 ± 0.0081.
Regarding NHCDP I125V, the sfGFP reporter fluorescence was 0.0459 ± 0.0044 in data set [1], 0.0526 ± 0.0016 in data set [2] (ligand: 1 µM Pb) and 0.0631 ± 0.0035 in data set [2] (ligand: 30 µM Zn).
In the case of NIDAK M84A L107C, the sfGFP reporter fluorescence in data set [1] came to 1.54 ± 0.14; in data set [2] (ligand: 1 µM Pb), 2.6 ± 0.14; in data set [2] (ligand: 30 µM Zn) it was 4.03 ± 0.52.
With NIADP L107C, the sfGFP reporter fluorescence in data set [1] was found to be 2.06 ± 0.19; in data set [2] (ligand: 1 µM Pb), 3.57 ± 0.56; in data set [2] (ligand: 30 µM Zn), 3.67 ± 0.32.
